Reference: patent publication EP2289541A1

Biological target: low density lipoprotein receptor-related protein (LRP)
Test: cell-based or functional assay
[1] = scale: % of passage versus filter for alteplase alone

Substance: DSPAα1 (Desmoteplase) (from UniProt P98119 37-477) (enzyme)
- % of abluminal alteplase (alteplase transport across in vitro BBB, zymography assay; alteplase 0.3 µM and DSPAalpha1 0.3 µM) (% of abluminal alteplase alone): 46.6
- alteplase (% of passage versus filter) (alteplase translocation across in vitro BBB, spectrozyme assay; alteplase 0.3 µM and DSPAalpha1 0.3 µM) [1]: 67

Substance: DSPAα2 (from UniProt P15638 37-477) (enzyme)
- % of abluminal alteplase (alteplase transport across in vitro BBB, zymography assay; alteplase 0.3 µM and DSPAalpha 2 0.3 µM) (% of abluminal alteplase alone): 25.1
- alteplase (% of passage versus filter) (alteplase translocation across in vitro BBB, spectrozyme assay; alteplase 0.3 µM and DSPAalpha2 0.3 µM) [1]: 61.9

Substance: Reteplase (from UniProt P00750 36-562) (enzyme)
- % of abluminal alteplase (alteplase transport across in vitro BBB, zymography assay; alteplase 0.3 µM and Reteplase 0.3 µM) (% of abluminal alteplase alone): 51.6
